Measurements as given in patent publication US8252764B2, “Compositions and methods of use of targeting peptides against placenta and adipose tissues” (priority 2000, dated 2012).
One block for each compound: values may come before it. Bridge positions count the residues as written; N and C are the ends. Square brackets hold non-standard residues; d marks the D form. Ends that are not written are not given here. Peptide text beside a SMILES is read from it. * marks the point of attachment. Cbz = O=C(OCc1ccccc1)*; CH2F = FC*

Experiments:
fat vasculature = assay type: in vivo
Experimental: FIG. 10. Treatment of mouse obesity with fat vasculature-targeted apoptosis. Three cohorts (n=3) of (A) high-fat cafeteria diet-fed obese c57bl/6 mice; or (B) regular diet-fed old (˜1 year) c57bl/6 mice were each subcutaneously injected daily with equimolar amounts of the indicated peptides. Mouse body mass measurement was taken on days when injections were performed (injections were skipped on days for which body mass measurement is not shown). Error bars are SEM for the measurements in three mice.
FIG. 11. Fat resorption induced by fat vasculature-targeted apoptosis. (A) Representative high-fat cafeteria diet-fed obese c57bl/6 mice; (B) and (C) representative regular diet-fed old (˜1 year) c57bl/6 mice; or (D) epididymal fat from representative regular diet-fed old c57bl/6 mice from the experiment described in FIG. 10. Whole mice (A), subcutaneous fat (B), peritoneal fat (C) and total epididymal fat (D) from the corresponding indicated treatments were photographed 1 week (A) or 3 weeks (B), (C) and (D) after the beginning of subcutaneous injections. The injected peptides were […] (SEQ ID NO:22) linked to (KLAKLAK)2 (SEQ ID NO:1) (left column), CARAC (SEQ ID NO:12) linked to (KLAKLAK)2 (SEQ ID NO:1) (middle column), and […] (SEQ ID NO:22) co-administered with (KLAKLAK)2 (SEQ ID NO:1) (right column).
FIG. 12. Destruction of fat blood vessels as a result of targeted apoptosis. (A) Tunnel immunohistochemistry, (B) secondary antibody only negative tunnel staining control and (C) and (D) hematoxylin/eosin staining of white fat of mice. (A), (B) and (C) Mice were treated with […] (SEQ ID NO:22) linked to (KLAKLAK)2 (SEQ ID NO:1). (D) Mice were treated with CARAC (SEQ ID NO:12) linked to (KLAKLAK)2 (SEQ ID NO:1). Apoptosis (arrows, (A)) and necrosis/lymphocyte infiltration (arrows, (C)) in response to […] (SEQ ID NO:22) linked to (KLAKLAK)2 (SEQ ID NO:1) treatment are indicated. Bar: 10 μm.
Stocks of […] (SEQ ID NO:22) fused to (KLAKLAK)2 (SEQ ID NO:1); (KLAKLAK)2 (SEQ ID NO:1) alone; CARAC (SEQ ID NO:12) fused to (KLAKLAK)2 (SEQ ID NO:1); and […] (SEQ ID NO:22) peptide were chemically synthesized, cyclized using the terminal cysteines and HPLC-purified to >90% (Anaspec). Lyophilized peptides were dissolved in DMSO to a concentration of 65 mM to make stock solutions. A total of 150 μl of 0.65 mM peptide solution in PBS was subcutaneously injected daily in the back of C57BL/6 males, after body mass was measured each day. High-fat cafeteria diet for obesity induction (TD97366: 25.4% fat, 21.79% protein, 38.41% carbohydrate) was purchased from Harlan Teklad. Mice were pre-fed with TD97366 prior to the initiation of treatment with adipose targeting peptides to induce diet-related obesity.

HUVEC cells = test: Apoptosis assay in HUVEC (propidium iodide, chromatin fragmentation); assay type: cell-based, human
Experimental: FIG. 26. Penetratin peptide chimera binding to the β5 cytoplasmic domain induces programmed cell death. 10^6 HUVEC cells were harvested in complete media and 15 μM penetratin peptide chimeras were added to the cells. […] (a) Profile obtained with starved cells after 24 h. (b) Confluent cells in complete media. (c) 15 μM of penetratin after four hours. (d) 15 μM of VISY-penetratin chimera after four hours.
FIG. 30. Chimeric peptide containing VISY peptide linked to penetratin (antennapedia) induces apoptosis. VISY induced apoptosis was inhibited by addition of a caspase inhibitor (zVAD).
Approximately 1×10^6 cells were harvested in complete media and 15 AM of peptide added for 4, 8, or 12 h. The cellswere then washed in PBS and resuspended in 0.5 ml propidium iodide solution (50 μg/ml PI, 0.1% Triton X-100, 0.1% sodium citrate). After a 24-h incubation at 4° C., cells were counted with a XL Coulter (Coulter Corporation) with a 488-nm laser; 12,000 cells were counted for each histogram, and cell cycle distributions were analyzed with Multicycle program.
Approximately 1×10^6 cells were harvested in complete medium, and 15 μM of peptide was added for 4, 8, or 12 hours. The cells were then washed in PBS and resuspended in 0.5 ml propidium iodide solution (50 μg/ml PI, 0.1% Triton X-100, 0.1% sodium citrate). After a 24-h incubation at 4° C., the cells were counted with an XL Coulter (Coulter Corporation) with a 488 nm laser; 12,000 cells were counted for each histogram, and cell cycle distributions were analyzed with the Multicycle program.
10^6 HUVEC were treated with 15 μM of VISY antennapedia (penetratin) chimera or 15 μM of antennapedia peptide (pentratin) alone for 2-4 hours and chromatin fragmentation was analyzed by electrophoresis in an agarose gel.

[1] = biological target: T1, prohibition receptor protein complex (Mus musculus, UniProt P67778); test: Adipose receptor protein binding and immunoprecipitation
T1 construct: from tissue; host or cells: mouse adipose tissue extract
T1 sequence (P67778 2-272 limits assumed): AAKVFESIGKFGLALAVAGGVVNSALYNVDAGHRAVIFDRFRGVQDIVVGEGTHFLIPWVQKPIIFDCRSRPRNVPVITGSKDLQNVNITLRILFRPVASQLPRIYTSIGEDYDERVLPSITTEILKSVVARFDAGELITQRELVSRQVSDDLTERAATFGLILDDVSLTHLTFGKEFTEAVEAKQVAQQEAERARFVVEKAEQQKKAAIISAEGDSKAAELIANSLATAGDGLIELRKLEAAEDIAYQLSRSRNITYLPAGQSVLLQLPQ
Experimental: A band of approximately 35,000 Daltons (35 kDa) was isolated from mouse adipose tissue extract that bound to […] (SEQ ID NO:22) conjugated to (KLAKLAK)2 (SEQ ID NO:1). […] The 35 kDa band was analyzed by mass spectrometry, which identified three proteins present in the sample.
The three proteins included predominately a B cell receptor associated protein (prohibition), apolipoprotein E, and the voltage dependent anion channel (VDAC). Further studies were performed by immunoprecipitation, using either […] (SEQ ID NO:22) or CARAC (SEQ ID NO:12) conjugated to (KLAKAK)2 (SEQ ID NO:1) and precipitating with commercially available antibodies.
It is unknown whether those proteins bound to the CARAC (SEQ ID NO:12) moiety or to (KLAKAK)2 (SEQ ID NO:1).

SK-RC-49/APA cells = test: Phage binding specificity assay on SK-RC-49/APA cells; assay type: cell-based; conditions: phage displaying the peptide insert, data not shown
Experimental: The cell binding assay was performed with an input of 10^9 TU as described for the cell panning. The specificity was confirmed by adding […] (SEQ ID NO:56) peptide to the binding medium in increasing concentrations. For phage binding on immunocaptured APA, wells were blocked for 1 h at room temperature with PBS/3% BSA and incubated with 10^9 TU for 1 h at room temperature in 50 μl PBS/3% BSA. After eight washes in PBS/1% BSA/0.01% Tween-20 and two washes in PBS, phage were rescued by adding 200 μl of exponentially growing K91Kan E. coli. Each experiment was repeated at least three times.

[2] = biological target: T2, β3 integrin cytoplasmic domain (Homo sapiens, UniProt P05106); test: Binding of Fyn-phosphorylated phage to β3 cytoplasmic domain; conditions: for Phos/Unphos: Fyn-phosphorylated versus unphosphorylated phage; for β3 or β5/BSA / β3 or β5/GST: X4YX4 library phosphorylated with Fyn
T2 sequence (P05106 742-788 limits assumed): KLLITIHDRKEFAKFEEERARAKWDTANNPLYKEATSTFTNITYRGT
Experimental: (§1) Phosphorylation of peptide libraries with src family protein kinases (Fyn, c-Src, Lyn, and Syc) and serine/threonine kinases such as a MAP kinase were performed as described previously (Schmitz et al., 1996; Dente et al., 1997; Gram et al., 1997). Briefly, phage particles were collected from culture supernatants by double precipitation with 20% polyethylene glycol 8000 in 2.5 M NaCl. Particles were dissolved at 10^12 particles/ml. Purified phage (10 μl) were incubated for 3 hours at room temperature with different concentrations (35 to 3,500 units) of protein kinases in a reaction buffer volume of 50 μl. The reaction mixtures were transferred to tubes containing 10 μg of agarose-conjugated anti-P-Tyr, anti-P-Ser, or anti-P-Thr monoclonal antibodies to select phage displaying phosphorylated peptides. Bound phage were eluted by washing the column with 0.3 ml of elution buffer (0.1 M NaCl/glycine/1 mg/ml BSA, pH 2.35). The eluates were neutralized with 2 M Tris-base and incubated with 2 ml of a mid-log bacteria culture. Aliquots of 20 μl were removed for plating, and phage were harvested as described. The phosphorylation-selection step was repeated. Phosphorylated peptides binding to β3 and β5 cytoplasmic domains were analyzed as described in the previous section.
(§2) Randomly selected clones from rounds III and IV were sequenced from a X4YX4 phosphorylated library with Fyn. Amino acid sequences of the phagemid encoded peptides were deduced from nucleotide sequences. […] The ratio of binding to β3 or β5 was calculated by dividing the number of β3 or β5 colonies by GST or BSA colonies found after panning. The ratio of binding to β3 or β5 with phosphorylated phage by Fyn versus unphosphorylated phage was calculated by dividing the number of colonies found after the panning.
(§3) The effect of phosphorylation on the affinity and specificity of the cytoplasmic domain-binding was examined. Phage displaying the β3 and β5 cytoplasmic domain-binding peptides were phosphorylated in vitro as previously described (Schmitz et al., 1996; Dente et al., 1997; Gram et al., 1997), using Fyn kinase. Specific phosphorylation of the tyrosine-containing peptide on the surface of the phage was confirmed by using ^32P-gamma […] in the kinase reaction and by separating the phage pIII protein by SDS-PAGE.

[3] = biological target: T3, β5 integrin cytoplasmic domain (Homo sapiens, UniProt P18084); test: Binding of Fyn-phosphorylated phage to β5 cytoplasmic domain; conditions: for Phos/Unphos: Fyn-phosphorylated versus unphosphorylated phage; for β3 or β5/BSA / β3 or β5/GST: X4YX4 library phosphorylated with Fyn
T3 construct: screenings involving the β5 cytoplasmic domain fusion protein
T3 sequence (P18084 743-799 limits assumed): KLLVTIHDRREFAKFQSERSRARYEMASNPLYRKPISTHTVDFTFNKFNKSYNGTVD
Experimental: as §1, §2, §3

Compound: CC(C)C[C@@H](NC(=O)[C@@H](CCCCN)NC(=O)CNC(=O)CNC(=O)[C@@H]1CSSC[C@H](N)C(=O)N[C@@H](CCCCN)C(=O)NCC(=O)NCC(=O)N[C@@H](CCCNC(=N)N)C(=O)N[C@@H](C)C(=O)N[C@@H](CCCCN)C(=O)N[C@@H](CC(=O)O)C(=O)N1)C(=O)N[C@H](C)C(=O)N[C@H](CCCCN)C(=O)N[C@H](CC(C)C)C(=O)N[C@H](C)C(=O)N[C@H](CCCCN)C(=O)N[C@H](CCCCN)C(=O)N[C@H](CC(C)C)C(=O)N[C@H](C)C(=O)N[C@H](CCCCN)C(=O)N[C@H](CC(C)C)C(=O)N[C@H](C)C(=O)N[C@H](CCCCN)C(=O)O (H-CKGGRAKDCGG[dK][dL][dA][dK][dL][dA][dK][dK][dL][dA][dK][dL][dA][dK]-OH; disulfide 1-9)
mortality in genetically obese mice (fat vasculature; genetically obese mice, not in normal obese mice): occasionally observed to result in mortality within a few days of injection | abnormalities in other organs (fat vasculature; mouse, in vivo): No abnormalities in other organs

Compound: COC(=O)C[C@H](NC(=O)[C@H](C)NC(=O)[C@@H](NC(=O)OCc1ccccc1)C(C)C)C(=O)CF [zVAD, reference compound] (Cbz-Val-Ala-Asp(OMe)-CH2F)
inhibition of VISY chimeric peptide induced apoptosis (HUVEC cells; added to the media at the same time as the VISY chimeric peptide): up to 70%

Compound: CARAC-(KLAKLAK)2: control CARAC (SEQ ID NO:12) fused to (KLAKLAK)2 (SEQ ID NO:1) (CARACKLAKLAKKLAKLAK) [reference compound]
binding of 35 kDa band from mouse adipose tissue extract ([1]; data not shown): much less binding | binding to VDAC, prohibition and apolipoprotein E ([1]; immunoprecipitation): low levels of non-specific binding to all three proteins | histopathological analysis of white fat (fat vasculature; TUNEL, hematoxylin/eosin): no vascular apoptosis or fat necrosis | body mass change (in words) (fat vasculature; high-fat cafeteria diet-fed obese C57BL/6 mice, equimolar amount, sc daily): did not show a significant body mass decrease

Compound: CGTGCAVECEVVC
selective binding of phage to SK-RC-49/APA cells (SK-RC-49/APA cells): no selective binding

Compound: CKGGRAKDC
enrichment of prohibition receptor protein complex in precipitated fraction compared to CARAC precipitated fraction ([1]; immunoprecipitation, SDS-PAGE, data not shown): over a ten-fold enrichment

Compound: MLLGYRFEK
Phos/Unphos [2]: 2.5 | β3 or β5/BSA [2]: 2.7 | β3 or β5/GST [2]: 3.5

Compound: VISY-penetratin chimera: VVISYSMPD (β5 cytoplasmic domain-binding peptide) coupled to penetratin, plus a biotin moiety (VVISYSMPDRQIKIWFQNRRMKWKK; also: biotin moiety, place not given here)
induction of apoptosis (chromatin fragmentation) (HUVEC cells; 10^6 HUVEC, 15 μM, 2-4 hours): induction of apoptosis | induction of apoptosis (propidium iodide staining) (HUVEC cells; HUVEC, 15 μM, four hours): induction of apoptosis

The remaining lines, values ahead:

Phos/Unphos [2]: 13.2 | β3 or β5/BSA [2]: 5.3 | β3 or β5/GST [2]: 1.5
Compound: GGGSYRHVE

Phos/Unphos [3]: 3.8 | β3 or β5/BSA [3]: 15.2 | β3 or β5/GST [3]: 3.8
Compound: TLRKYFHSS

Phos/Unphos [3]: 4.2 | β3 or β5/BSA [3]: 3.8 | β3 or β5/GST [3]: 2.3
Compound: TMLRYFMFP

Phos/Unphos [3]: 14.3 | β3 or β5/BSA [3]: 2.2 | β3 or β5/GST [3]: 3.4
Compound: TMLRYTVRL
